Results as given in US20240060082A1.

Molecular target: soybean's RPS5 homolog (soybean)
Test: cell-based or functional assay

| Substance | resistance to the three soy rust strains in transgenic soybean, compared to control event G40 |
| --- | --- |
| PBS1-R19 (modified Arabidopsis thaliana PBS1 with cleavage site R19, QMIFLR) (from UniProt Q9FE20 1-456) | > 85 % efficacy |
| PBS1-R17 (modified Arabidopsis thaliana PBS1 with cleavage site R17, QVFEFL) (from UniProt Q9FE20 1-456) | > 85 % efficacy |
| PBS1-R20 (modified Arabidopsis thaliana PBS1 with cleavage site R20, IFLWSA) (from UniProt Q9FE20 1-456) | > 85 % efficacy |
